Changes are numbered by the printed parent chain. Names may count otherwise.

Sequences and labels used below:
B1: Subtilisin E (wild type) (protein)
chain: AQSVPYGISQIKAPALHSQGYTGSNVKVAVIDSGIDSSHPDLNVRGGASFVPSETNPYQDGSSHGTHVAGTIAALNNSIGVLGVSPSASLYAVKVLDSTGSGQYSWIINGIEWAISNNMDVINMSLGGPTGSTALKTVVDKAVSSGIVVAAAAGNEGSSGSTSTVGYPAKYPSTIAVGAVNSSNQRASFSSAGSELDVMAPGVSIQSTLPGGTYGAYNGTSMATPHVAGAAALILSKHPTWTNAQVRDRLESTATYLGNSFYYGKGLINVQAAAQ
B2: Variant 4 (Q103R/V138A/A150V/E156A/Y217H/Q271H) (protein)
chain: B1 chain with Q103R, V138A, A150V, E156A, Y217H, Q271H
B3: Variant 22 (E54D/Q103R/T133K/E156A/Y217H) (protein)
chain: B1 chain with E54D, Q103R, T133K, E156A, Y217H
B4: Variant 1 (Y6N/I31L/S38T/F50I/Q103R) (protein)
chain: B1 chain with Y6N, I31L, S38T, F50I, Q103R

In the data set the target is fluorescent labeled casein or bovine serum albumin molecules.
Take B1: the Km was determined as 194 µM.

Regarding B2, the Km is 71 µM.

With B3, the Km worked out at 26 µM.

On to B4, for which the Michaelis constant (Km) was 117 µM.

A word on the Km: it is the substrate concentration at which the rate is half of its maximum.

The values are drawn from patent US20030157645.
